Biological target: sTREM-1 (UniProt Q9NP99-2 21-150, labelled with Alexa Fluor 488 (Protein Labeling Kit))
Assay: MST; sTREM-1 labelled with Alexa Fluor 488; peptide in 16 concentrations by sequential dilution; 30 min in the dark at room temperature; Monolith NT.115, 8% IR laser power; at least three replicates
Details: both partners purified

sTREM-1, sequence (Q9NP99 other isoform, or with tags, fused parts or gaps): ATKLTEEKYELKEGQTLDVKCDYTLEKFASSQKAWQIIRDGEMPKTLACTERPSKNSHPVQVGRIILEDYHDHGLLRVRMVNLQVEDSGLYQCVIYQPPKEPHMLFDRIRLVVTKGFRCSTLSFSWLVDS

B1: peptide N7 (16aa peptide of Hsp70) (peptide)
peptide: SDNQPGVLIQVYEGEK
notes: Hsp70, human; Found by MALDI-TOF in a trypsin hydrolysate of recombinant human Hsp70, then synthesised; also called N7 peptide; Hsp70 N7 peptide; source: synthetic peptide (Fmoc, purified by HPLC)
Kd: 1.6 nM
